{
  "source": "patent US20160058827A1",
  "biological_target": "MUC1 C-terminal subunit (MUC1-C) (human) (UniProt P15941)",
  "sequence (P15941 1097-1255)": "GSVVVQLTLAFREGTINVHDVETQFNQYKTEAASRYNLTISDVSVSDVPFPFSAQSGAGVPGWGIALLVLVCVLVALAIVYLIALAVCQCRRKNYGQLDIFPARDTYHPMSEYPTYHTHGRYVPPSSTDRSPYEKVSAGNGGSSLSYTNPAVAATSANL",
  "assay": "cell-based or functional assay",
  "data": [
    {"substance": "GO-203 (peptide)", "values": [
      {"measurement": "half-maximal inhibitory concentration for GO-203 (BT-474/CshRNA cell growth)", "result": 3.9, "unit": "µM"}
    ]}
  ]
}
